Results published in US20100047255A1 (Harvard, published 2010).
Numbering of substitutions follows the chain as printed. Names may count otherwise.

B1: Flag-HA-Uba6^C625S (enzyme)
chain: MEGSEPVAAHQGEKASCSSWGTGSTNKNLPIMSTASVEIDDALYSRQRYVLGDTAMQKMAKSHVFLSGMGGLGLEIAKNLVLAGIKAVTIHDTEKCQAWDLGTNFFLSEDDVVNKRNRAEAVLKHIAELNPYVHVTSSSAPFNETTDLSFLDKYQCVVLTEMKLPLQKKINDFCRSQCPPIKFISADVHGIWSRLFCDFGDEFEVLDTTGEEPKEIFISNITQTNPGIVTCLENHPHKLETGQFLTFREINGMTGLNGSIQQITVISPFSFSIGDTTELEPYLHGGIAVQVKTPKTVFFESLERQLKHPKCLIVDFSNPEAPLEIHTAMLALDQFQEKYSRKPNVGCQQDSEELLKLATSISETLEEKPDVNADIVHWLSWTAQGFLSPLAAAVGGVASQEVLKAVTGKFSPLCQWLYLEAADIVESLGKPECEEFLPRGDRYDALRACIGDTLCQKLQNLNIFLVGCGAIGCEMLKNFALLGVGTSKEKGMITVTDPDLIEKSNLNRQFLFRPHHIQKPKSYTAADATLKINSQIKIDAHLNKVCPTTETIYNDEFYTKQDVIITALDNVEARRYVDSRCLANLRPLLDSGTMGTKGHTEVIVPHLTESYNSHRDPPEEEIPFSTLKSFPAAIEHTIQWARDKFESSFSHKPSLFNKFWQTYSSAEEVLQKIQSGHSLEGCFQVIKLLSRRPRNWSQCVELARLKFEKYFNHKALQLLHCFPLDIRLKDGSLFWQSPKRPPSPIKFDLNEPLHLSFLQNAAKLYATVYCIPFAEEDLSADALLNILSEVKIQEFKPSNKVVQTDETARKPDHVPISSEDERNAIFQLEKAILSNEATKSDLQMAVLSFEKDDDHNGHIDFITAASNPRAKMYSIEPADRFKTKRIAGKIIPAIATTTATVSGLVALEMIKVTGGYPFEAYKNCFLNLAIPIVVFTETTEVRKTKIRNGISFTIWDRWTVHGKEDFTLLDFINAVKEKYGIEPTMVVQGVKMLYVPVMPGHAKRLKLTMHKLVKPTTEKKYVDLTVSFAPDIDGDEDLPGPPVRYYFSHDTD
notes: Catalytic cysteine changed to serine; also called C625S mutant; Flag-HA-Ub6^C625S; not shown: N-terminal Flag-HA tag
B2: Flag-HA-Uba6 (enzyme)
chain: B1 chain with S625C
notes: also called HA-Flag-Uba6; wild-type Uba6 with N-terminal Flag-HA tag; not shown: N-terminal Flag-HA tag

Experiments:
[1] = target: Nedd8 (endogenous protein of 293T cells) (human, UniProt Q15843 1-76); experiment: anti-Nedd8 immunoblot of anti-HA immune complexes from 293T cells, non-reducing SDS-PAGE
[2] = target: ubiquitin (endogenous protein of 293T cells) (human, UniProt P0CG48 1-76); experiment: LC/MS/MS (LTQ-Orbitrap) of Flag-HA-Uba6˜Ub purified from mammalian cells

Nedd8 (endogenous protein of 293T cells), sequence (Q15843 1-76 limits assumed): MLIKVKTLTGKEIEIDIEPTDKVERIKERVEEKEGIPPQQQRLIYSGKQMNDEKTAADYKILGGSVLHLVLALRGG

binding result [1] | binding result [2] | Binder
no binding |  | B1
 | binds | B2
